Results reported in patent US20260070987A1.

Target: equine FcRn (large alpha subunit p51) / equine beta-2-microglobulin complex, biotinylated (equine) (UniProt P30441)
Test: SPR (Biacore), pH 6

Sequence of UniProt P30441 (P30441 21-118, one chain of several): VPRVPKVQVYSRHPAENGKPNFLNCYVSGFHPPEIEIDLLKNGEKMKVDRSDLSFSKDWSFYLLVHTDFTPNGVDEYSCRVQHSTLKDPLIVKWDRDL

B1: equine IgG4 M428K (antibody, part only; not given: variable domains, not shown: another chain or arm of the molecule)
constant: ASTTAPKVFPLASHSAATSGSTVALGCLVSSYFPEPVTVSWNSGALTSGVHTFPSVLQSSGLYSLSSMVTVPASSLKSQTYICNVAHPASSTKVDKKIVIKECNGGCPAECLQVGPSVFIFPPKPKDVLMISRTPTVTCVVVDVGHDFPDVQFNWYVDGVETHTATTEPKQEQFNSTYRVVSVLPIQHKDWLSGKEFKCKVNNKALPAPVERTISKPTGQPREPQVYVLAPHRDELSKNKVSVTCLVKDFYPTDIDIEWKSNGQPEPETKYSTTPAQLDSDGSYFLYSKLTVETNRWQQGTTFTCAVKHEALHNHYTEKSVSKSPGK
Kd: 46.2 nM

B2: equine IgG1 T286M (antibody, part only; not given: variable domains, not shown: another chain or arm of the molecule)
constant: ASTTAPKVFALAPGCGTTSDSTVALGCLVSGYFPEPVKVSWNSGSLTSGVHTFPSVLQSSGFYSLSSMVTVPASTWTSETYICNVVHAASNFKVDKRIEPIPDNHQKVCDMSKCPKCPAPELLGGPSVFIFPPNPKDTLMITRTPEVTCVVVDVSQENPDVKFNWYMDGVEVRMATTRPKEEQFNSTYRVVSVLRIQHQDWLSGKEFKCKVNNQALPQPIERTITKTKGRSQEPQVYVLAPHPDELSKSKVSVTCLVKDFYPPEINIEWQSNGQPELETKYSTTQAQQDSDGSYFLYSKLSVDRNRWQQGTTFTCGVMHEALHNHYTQKNVSKNPGK
Kd: 15.6 nM

B3: equine IgG4 M428L (antibody, part only; not given: Variable domains, not shown: another chain or arm of the molecule)
constant: ASTTAPKVFPLASHSAATSGSTVALGCLVSSYFPEPVTVSWNSGALTSGVHTFPSVLQSSGLYSLSSMVTVPASSLKSQTYICNVAHPASSTKVDKKIVIKECNGGCPAECLQVGPSVFIFPPKPKDVLMISRTPTVTCVVVDVGHDFPDVQFNWYVDGVETHTATTEPKQEQFNSTYRVVSVLPIQHKDWLSGKEFKCKVNNKALPAPVERTISKPTGQPREPQVYVLAPHRDELSKNKVSVTCLVKDFYPTDIDIEWKSNGQPEPETKYSTTPAQLDSDGSYFLYSKLTVETNRWQQGTTFTCAVLHEALHNHYTEKSVSKSPGK
Kd: 17.4 nM

B4: equine IgG4 M428N (antibody, part only; not given: variable domains, not shown: another chain or arm of the molecule)
constant: ASTTAPKVFPLASHSAATSGSTVALGCLVSSYFPEPVTVSWNSGALTSGVHTFPSVLQSSGLYSLSSMVTVPASSLKSQTYICNVAHPASSTKVDKKIVIKECNGGCPAECLQVGPSVFIFPPKPKDVLMISRTPTVTCVVVDVGHDFPDVQFNWYVDGVETHTATTEPKQEQFNSTYRVVSVLPIQHKDWLSGKEFKCKVNNKALPAPVERTISKPTGQPREPQVYVLAPHRDELSKNKVSVTCLVKDFYPTDIDIEWKSNGQPEPETKYSTTPAQLDSDGSYFLYSKLTVETNRWQQGTTFTCAVNHEALHNHYTEKSVSKSPGK
Kd: 44.3 nM

B5: equine IgG4 M428P (antibody, part only; not given: variable domains, not shown: another chain or arm of the molecule)
constant: ASTTAPKVFPLASHSAATSGSTVALGCLVSSYFPEPVTVSWNSGALTSGVHTFPSVLQSSGLYSLSSMVTVPASSLKSQTYICNVAHPASSTKVDKKIVIKECNGGCPAECLQVGPSVFIFPPKPKDVLMISRTPTVTCVVVDVGHDFPDVQFNWYVDGVETHTATTEPKQEQFNSTYRVVSVLPIQHKDWLSGKEFKCKVNNKALPAPVERTISKPTGQPREPQVYVLAPHRDELSKNKVSVTCLVKDFYPTDIDIEWKSNGQPEPETKYSTTPAQLDSDGSYFLYSKLTVETNRWQQGTTFTCAVPHEALHNHYTEKSVSKSPGK
Kd: 13000 nM

B6: equine IgG4 M428Q (antibody, part only; not given: variable domains, not shown: another chain or arm of the molecule)
constant: ASTTAPKVFPLASHSAATSGSTVALGCLVSSYFPEPVTVSWNSGALTSGVHTFPSVLQSSGLYSLSSMVTVPASSLKSQTYICNVAHPASSTKVDKKIVIKECNGGCPAECLQVGPSVFIFPPKPKDVLMISRTPTVTCVVVDVGHDFPDVQFNWYVDGVETHTATTEPKQEQFNSTYRVVSVLPIQHKDWLSGKEFKCKVNNKALPAPVERTISKPTGQPREPQVYVLAPHRDELSKNKVSVTCLVKDFYPTDIDIEWKSNGQPEPETKYSTTPAQLDSDGSYFLYSKLTVETNRWQQGTTFTCAVQHEALHNHYTEKSVSKSPGK
Kd: 30 nM
